Test results from patent US20210024620A1.

Assays:
rat FcRn (rat) [1] = molecular target: rat FcRn (rat) (UniProt P13599); test: Biacore, pH 6.0, apparent KD
[2] = molecular target: FcRn immobilised on the FcRn affinity column (biotinylated cynoFcRn in one experiment, biotinylated hFcRn in another); test: FcRn affinity chromatography, linear pH gradient; species of the immobilised FcRn not given
rat FcRn (rat) [3] = molecular target: rat FcRn (rat) (UniProt P13599); test: Biacore SPR, pH 6.0
[4] = molecular target: biotinylated human FcRn (human) (UniProt P55899); test: Biacore SPR, pH 7.4, 1000 nM antibody
Sequence of biotinylated human FcRn (human) (P55899 24-297 limits assumed, chain 1 of 2): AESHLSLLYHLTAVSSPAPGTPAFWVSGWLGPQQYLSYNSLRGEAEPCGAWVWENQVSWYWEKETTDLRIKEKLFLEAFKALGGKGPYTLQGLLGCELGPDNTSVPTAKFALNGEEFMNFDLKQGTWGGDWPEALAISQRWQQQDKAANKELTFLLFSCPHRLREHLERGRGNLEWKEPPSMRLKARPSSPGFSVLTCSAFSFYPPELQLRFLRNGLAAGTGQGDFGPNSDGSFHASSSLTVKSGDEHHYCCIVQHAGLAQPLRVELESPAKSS
Sequence of biotinylated human FcRn (human) (P61769 21-119 limits assumed, chain 2 of 2, further chain): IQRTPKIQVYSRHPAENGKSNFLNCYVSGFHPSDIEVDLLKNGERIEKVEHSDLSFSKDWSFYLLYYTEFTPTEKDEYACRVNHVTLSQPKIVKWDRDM

rat FcRn (rat) [5] = molecular target: rat FcRn (rat) (UniProt P13599); test: Biacore SPR, pH 7.4, 1000 nM antibody
[6] = molecular target: biotinylated human FcRn (p51 subunit residues 24-297 with C-terminal Avi-tag; beta2-microglobulin residues 21-119) (human) (UniProt P55899); test: Biacore SPR, pH 7.4, steady state
Sequence of biotinylated human FcRn (p51 subunit residues 24-297 with C-terminal Avi-tag; beta2-microglobulin residues 21-119) (human) (P55899 24-297 limits assumed, chain 1 of 2): as the sequence (P55899 24-297 limits assumed, chain 1 of 2) above
Sequence of biotinylated human FcRn (p51 subunit residues 24-297 with C-terminal Avi-tag; beta2-microglobulin residues 21-119) (human) (P61769 21-119 limits assumed, chain 2 of 2, further chain): as the sequence (P61769 21-119 limits assumed, chain 2 of 2, further chain) above

[7] = molecular target: biotinylated human FcRn (p51 subunit residues 24-297 with C-terminal Avi-tag; beta2-microglobulin residues 21-119) (human) (UniProt P55899); test: Biacore; inverse ratio (RU at pH 7.4 over affinity at pH 6.0)
[8] = molecular target: biotinylated human FcRn (p51 subunit residues 24-297 with C-terminal Avi-tag; beta2-microglobulin residues 21-119) (human) (UniProt P55899); test: Biacore SPR, pH 6.0
[9] = molecular target: biotinylated human FcRn (p51 subunit residues 24-297 with C-terminal Avi-tag; beta2-microglobulin residues 21-119) (human) (UniProt P55899); test: Biacore; affinity at pH 6.0 (M^-1) over steady state RU at pH 7.4
[10] = molecular target: biotinylated human FcRn (human) (UniProt P55899); test: Biacore, pH 6.0, apparent KD
rat FcRn (rat) [11] = molecular target: rat FcRn (rat) (UniProt P13599); test: Biacore SPR, pH 7.4
[12] = molecular target: biotinylated human FcRn (human) (UniProt P55899); test: Biacore SPR, pH 6.0
[13] = molecular target: biotinylated human FcRn (human) (UniProt P55899); test: Biacore SPR, pH 6.0; remark: listed apart in the source
[14] = molecular target: biotinylated human FcRn (human) (UniProt P55899); test: Biacore SPR, pH 7.4

Sequence of rat FcRn (rat) (P13599 23-298 limits assumed, chain 1 of 2): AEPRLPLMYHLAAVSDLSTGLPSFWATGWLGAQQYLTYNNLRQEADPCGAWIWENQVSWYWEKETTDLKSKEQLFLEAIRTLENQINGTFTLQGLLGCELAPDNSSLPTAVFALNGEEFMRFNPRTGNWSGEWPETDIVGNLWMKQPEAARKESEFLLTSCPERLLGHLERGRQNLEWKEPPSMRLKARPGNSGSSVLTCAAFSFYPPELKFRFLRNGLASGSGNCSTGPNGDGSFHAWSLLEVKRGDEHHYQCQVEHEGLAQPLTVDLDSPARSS
Sequence of rat FcRn (rat) (P07151 21-119 limits assumed, chain 2 of 2, further chain): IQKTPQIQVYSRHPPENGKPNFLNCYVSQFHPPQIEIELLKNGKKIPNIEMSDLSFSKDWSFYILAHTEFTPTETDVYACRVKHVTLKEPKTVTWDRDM

Row | Substance | Kd (rat FcRn (rat) [1]) [µM] | FcRn affinity column elution pH [2] [pH] | Kd (rat FcRn (rat) [3]) [µM] | Steady State RU (rat FcRn (rat) [5]) [RU] | Steady State Binding, pH 7.4 (RU) [6] [RU] | Ratio (pH 6.0/pH 7.4) [7] | Ka [8] [M⁻¹] | Ratio (pH 6.0/pH 7.4) [9] | Steady State RU (rat FcRn (rat) [11]) [RU] | Kd [12] [µM] | Steady State RU [14] [RU] | also measured
1 | mAb1 Y436W (antibody) | 1.14 | 7.39 | 1.14 | 10.3 | – | – | – | – | – | – | – | Steady State RU [4]: 3.7 RU
2 | mAb1 T307F (antibody) | 0.131 | 7.61 | 0.131 | 21.9 | – | – | – | – | – | – | – | Steady State RU [4]: 4.9 RU
3 | mAb1 YDTF (M252Y/T256D/N434F) (antibody) | – | – | – | – | 57.7 | 1.95e-06 | 2.96e+07 | 513000 | – | – | – | –
4 | mAb1 M252Y (antibody) | 0.025 | 7.88 | 0.025 | 57.7 | – | – | – | – | 50.5 | 3.1 | – | Kd [10]: 3.1 µM; Kd [13]: > 3 µM
5 | mAb1 YTWF (M252Y/T307W/N434F) (antibody) | – | – | – | – | 62.6 | 9.57e-07 | 6.54e+07 | 1.04e+06 | – | – | – | –
6 | mAb1 MTWF (T307W/N434F) (antibody) | – | – | 0.0027 | – | 30.5 | – | 2.62e+07 | – | 65.1 | 0.0382 | 30.5 | koff (rat FcRn (rat) [3]): 0.00057 s⁻¹
7 | mAb1 MDWF (T256D/T307W/N434F) (antibody) | – | – | – | – | 47.1 | 1.68e-06 | 2.81e+07 | 597000 | – | – | – | –
8 | mAb1 T307A (antibody) | 0.132 | 7.61 | 0.132 | 23.1 | – | – | – | – | – | – | – | Steady State RU [4]: 5.2 RU
9 | mAb1 YDWN (M252Y/T256D/T307W) (antibody) | – | – | – | – | 25.9 | 2.56e-06 | 1.01e+07 | 390000 | – | – | – | –
10 | mAb1 T307M (antibody) | 0.279 | 7.4 | 0.279 | 15.3 | – | – | – | – | – | – | – | Steady State RU [4]: 4.4 RU
11 | mAb1 Y436H (antibody) | 0.131 | 7.33 | 0.131 | 16.3 | – | – | – | – | – | – | – | Steady State RU [4]: 3.6 RU
12 | mAb1 MEQY (T256E/T307Q/N434Y) (antibody) | – | – | – | – | 38.6 | – | 2.38e+07 | 617000 | – | – | – | –
13 | mAb1 MEQN (T256E/T307Q) (antibody) | – | – | 0.0107 | – | – | – | 2e+06 | – | 23.4 | 0.499 | – | –
14 | mAb1 MDTF (T256D/N434F) (antibody) | – | – | 0.00178 | – | 29.2 | 8.74e-07 | 3.34e+07 | 1.14e+06 | 63 | 0.0299 | 29.2 | koff [12]: 0.029 s⁻¹; kon [12]: 968000 M⁻¹ s⁻¹; koff (rat FcRn (rat) [3]): 0.00039 s⁻¹; kon (rat FcRn (rat) [3]): 218000 M⁻¹ s⁻¹
15 | mAb1 YETY (M252Y/T256E/N434Y) (antibody) | – | – | – | – | 22.6 | 6.77e-07 | 3.34e+07 | 1.48e+06 | – | – | – | –
16 | mAb1 K288N (antibody) | 0.19 | 7.39 | 0.19 | 20.4 | – | – | – | – | – | – | – | –
17 | mAb1 N434P (antibody) | 0.194 | 7.56 | 0.194 | 4.3 | – | – | – | – | – | – | – | Steady State RU [4]: 3.5 RU
18 | mAb1 K288D (antibody) | 0.149 | 7.33 | 0.149 | 21.9 | – | – | – | – | – | – | – | Steady State RU [4]: 3.8 RU
19 | mAb1 YTQF (M252Y/T307Q/N434F) (antibody) | – | – | – | – | 59.9 | 1.06e-06 | 5.65e+07 | 943000 | – | – | – | –
20 | mAb1 MEWF (T256E/T307W/N434F) (antibody) | – | – | – | – | 41.9 | 7.46e-07 | 5.62e+07 | 1.34e+06 | – | – | – | –

Row | Substance | Kd (rat FcRn (rat) [1]) [µM] | FcRn affinity column elution pH [2] [pH] | Kd (rat FcRn (rat) [3]) [µM] | Steady State RU (rat FcRn (rat) [5]) [RU] | Steady State Binding, pH 7.4 (RU) [6] [RU] | Ratio (pH 6.0/pH 7.4) [7] | Ka [8] [M⁻¹] | Ratio (pH 6.0/pH 7.4) [9] | Steady State RU (rat FcRn (rat) [11]) [RU] | Kd [12] [µM] | Steady State RU [14] [RU] | also measured
21 | mAb1 Y436N (antibody) | 0.233 | 7.22 | 0.233 | 17.4 | – | – | – | – | – | – | – | Steady State RU [4]: 3.6 RU
22 | mAb1 MEQF (T256E/T307Q/N434F) (antibody) | – | – | – | – | – | – | 142000 | – | – | – | – | –
23 | mAb1 T256E (antibody) | 0.113 | 7.63 | 0.113 | 23 | – | – | – | – | 17 | – | 4.5 | Steady State RU [4]: 4.8 RU; Kd [13]: > 3 µM
24 | mAb1 MTWY (T307W/N434Y) (antibody) | – | – | 0.00062 | – | 37.2 | 8e-07 | 4.65e+07 | 1.25e+06 | 69.6 | 0.0215 | 37.2 | koff [12]: 0.0317 s⁻¹; kon [12]: 1.48e+06 M⁻¹ s⁻¹; koff (rat FcRn (rat) [3]): 0.0003 s⁻¹; kon (rat FcRn (rat) [3]): 480000 M⁻¹ s⁻¹
25 | mAb1 METF (T256E/N434F) (antibody) | – | – | 0.00753 | – | 23.3 | – | 1.28e+07 | 549000 | 59 | 0.0782 | 23.3 | Ratio [7]: 1.82e-06; koff [12]: 0.0419 s⁻¹; kon [12]: 536000 M⁻¹ s⁻¹; koff (rat FcRn (rat) [3]): 0.00081 s⁻¹; kon (rat FcRn (rat) [3]): 108000 M⁻¹ s⁻¹
26 | mAb1 MEWN (T256E/T307W) (antibody) | – | – | 0.0106 | – | – | – | 3.1e+06 | – | 33 | 0.323 | – | –
27 | mAb1 MTQY (T307Q/N434Y) (antibody) | – | – | 0.00411 | – | 38.4 | 1.24e-06 | 3.09e+07 | 805000 | 63 | 0.0324 | 38.4 | koff [12]: 0.0202 s⁻¹; kon [12]: 622000 M⁻¹ s⁻¹; koff (rat FcRn (rat) [3]): 0.00048 s⁻¹; kon (rat FcRn (rat) [3]): 116000 M⁻¹ s⁻¹
28 | mAb1 YTQY (M252Y/T307Q/N434Y) (antibody) | – | – | – | – | 71.5 | 1.13e-06 | 6.33e+07 | 885000 | – | – | – | –
29 | mAb1 YTQN (M252Y/T307Q) (antibody) | – | – | 0.00411 | – | 10.6 | 2.94e-06 | 3.6e+06 | 340000 | 49.2 | 0.278 | 10.6 | koff [12]: 0.096 s⁻¹; kon [12]: 345000 M⁻¹ s⁻¹; koff (rat FcRn (rat) [3]): 0.00105 s⁻¹; kon (rat FcRn (rat) [3]): 255000 M⁻¹ s⁻¹
30 | mAb1 MEWY (T256E/T307W/N434Y) (antibody) | – | – | – | – | 46.6 | 6.62e-07 | 7.04e+07 | 1.51e+06 | – | – | – | –
31 | mAb1 MDTY (T256D/N434Y) (antibody) | – | – | 0.0006 | – | 37.1 | – | 6.41e+07 | 1.73e+06 | 71.6 | 0.0156 | 37.1 | koff [12]: 0.0285 s⁻¹; kon [12]: 1.83e+06 M⁻¹ s⁻¹; koff (rat FcRn (rat) [3]): 0.00025 s⁻¹; kon (rat FcRn (rat) [3]): 413000 M⁻¹ s⁻¹
32 | mAb1 METY (T256E/N434Y) (antibody) | – | – | 0.00771 | – | 26.8 | – | 1.6e+07 | 597000 | 62.2 | 0.0626 | 26.8 | koff [12]: 0.0393 s⁻¹; kon [12]: 628000 M⁻¹ s⁻¹; koff (rat FcRn (rat) [3]): 0.00098 s⁻¹; kon (rat FcRn (rat) [3]): 127000 M⁻¹ s⁻¹
33 | mAb1 YTTF (M252Y/N434F) (antibody) | – | – | 0.00029 | – | 43.8 | – | 5.56e+07 | 1.27e+06 | 79.3 | 0.018 | 43.8 | Ratio [7]: 7.88e-07; koff [12]: 0.023 s⁻¹; kon [12]: 1.27e+06 M⁻¹ s⁻¹; koff (rat FcRn (rat) [3]): 0.00012 s⁻¹; kon (rat FcRn (rat) [3]): 403000 M⁻¹ s⁻¹
34 | mAb1 MTQF (T307Q/N434F) (antibody) | – | – | 0.00389 | – | 34.2 | 1.47e-06 | 2.33e+07 | 681000 | 62.5 | 0.0429 | 34.2 | koff [12]: 0.0246 s⁻¹; kon [12]: 574000 M⁻¹ s⁻¹; koff (rat FcRn (rat) [3]): 0.0004 s⁻¹; kon (rat FcRn (rat) [3]): 104000 M⁻¹ s⁻¹
35 | mAb1 MDQF (T256D/T307Q/N434F) (antibody) | – | – | – | – | 55.3 | – | 6.62e+06 | – | – | – | – | –
36 | mAb1 E380C (antibody) | 6.31 | 7.18 | 6.31 | 27.7 | – | – | – | – | – | – | – | Steady State RU [4]: 5.7 RU
37 | mAb1 MDQY (T256D/T307Q/N434Y) (antibody) | – | – | – | – | 49.4 | – | 3.69e+07 | 747000 | – | – | – | Ratio [7]: 1.34e-06
38 | mAb1 YEWN (M252Y/T256E/T307W) (antibody) | – | – | – | – | 69.6 | 1.09e-05 | 6.41e+06 | 92100 | – | – | – | –
39 | mAb1 N434F (antibody; other documents disagree on this pair) | – | – | – | – | – | – | – | – | – | 0.165 | 22.2 | Kd [10]: 0.165 µM; Steady State RU [4]: 20.1 RU
